pKd: −log10 of the molar value.
Target: Staphylococcal enterotoxin G, wild type (Staphylococcus aureus (staphylococcal)) (UniProt P0A0L8)
Assay: SPR

Soluble mouse TCR β chain Vβ8.2 protein
pKd: 6.43
